Source: publication PMC6399320, “The SIAH2-NRF1 axis spatially regulates tumor microenvironment remodeling for tumor progression” (Nature Communications, 2019)

Target: T1, His-NRF1 (Nuclear Respiratory Factor 1), bacterially expressed (UniProt Q16656 1-503)
T1 construct: Nuclear Respiratory Factor 1 (NRF1), cDNA cloned into pET28a; Vector pET28a; source: Escherichia coli BL21, expressed and purified
T1 sequence (looked up): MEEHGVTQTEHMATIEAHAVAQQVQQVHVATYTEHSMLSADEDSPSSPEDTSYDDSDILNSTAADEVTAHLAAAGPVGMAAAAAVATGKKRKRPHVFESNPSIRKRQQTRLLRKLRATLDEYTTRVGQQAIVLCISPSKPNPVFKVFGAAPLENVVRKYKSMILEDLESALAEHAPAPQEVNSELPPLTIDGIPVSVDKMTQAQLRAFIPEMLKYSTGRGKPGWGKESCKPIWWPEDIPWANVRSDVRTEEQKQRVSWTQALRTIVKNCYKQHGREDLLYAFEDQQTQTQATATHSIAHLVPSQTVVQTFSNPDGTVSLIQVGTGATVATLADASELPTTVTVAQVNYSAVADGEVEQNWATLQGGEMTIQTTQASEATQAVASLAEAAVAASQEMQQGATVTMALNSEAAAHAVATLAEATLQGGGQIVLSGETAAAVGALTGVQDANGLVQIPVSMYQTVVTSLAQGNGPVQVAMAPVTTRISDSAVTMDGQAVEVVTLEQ
Test: pull-down; GST pull-down in vitro with bacterially expressed His-NRF1 and GST-SIAH2
Details: both partners purified

binding result: binds
B1: GST-SIAH2, bacterially expressed (enzyme, UniProt O43255 1-324, looked up)
chain: MSRPSSTGPSANKPCSKQPPPQPQHTPSPAAPPAAATISAAGPGSSAVPAAAAVISGPGGGGGAGPVSPQHHELTSLFECPVCFDYVLPPILQCQAGHLVCNQCRQKLSCCPTCRGALTPSIRNLAMEKVASAVLFPCKYATTGCSLTLHHTEKPEHEDICEYRPYSCPCPGASCKWQGSLEAVMSHLMHAHKSITTLQGEDIVFLATDINLPGAVDWVMMQSCFGHHFMLVLEKQEKYEGHQQFFAIVLLIGTRKQAENFAYRLELNGNRRRLTWEATPRSIHDGVAAAIMNSDCLVFDTAIAHLFADNGNLGINVTISTCCP
notes: E3 ligase SIAH2, cDNA cloned into pGEX-4T-1; Vector pGEX-4T-1; source: Escherichia coli BL21, expressed and purified
